In patent publication US20120316325, “DNA APTAMER […] BINDING TO pLDH (PLASMODIUM LACTATE DEHYDROGENASE)” (POSTECH ACADEMY-INDUSTRY FOUNDATION, published 2012):

Experiments:
[1] = biological target: pfLDH (Plasmodium falciparum lactate dehydrogenase) (Plasmodium falciparum, UniProt Q27743 Q27743:1-316); assay: fluorescence bead assay, same buffer; binding also seen by EMSA; conditions: chain copies: 4 inferred; label: FAM (fluorescence assay); Loop 1, G-C rich stem, Loop 2 (Mfold)
Procedure: A mixture of 16 μg of pvLDH and 10 μL of magnetic beads was incubated for one hour in 100 μL of binding buffer (20 mM Tris, 50 mM NaCl, 5 mM KCl, 5 mM MgCl2, pH 8.0), followed by washing twice with the binding buffer to remove unbound pvLDH. Then, the beads were incubated for one hour with various concentrations of FAM-labeled aptamers. The aptamers which were not reacted with pvLDH were removed by washing.
Only the FAM-labeled ssDNA aptamer which was bound to pvLDH immobilized to the magnetic beads was separated using a magnet and quantitatively analyzed by fluorescence assay (1420 Victor multilabel counter, PerkinElmer, USA). […] Kd values were also determined for pfLDH in the same manner.

[2] = biological target: T1, pvLDH (Plasmodium vivax lactate dehydrogenase) (Plasmodium vivax, UniProt Q4PRK9 Q4PRK9:1-316)
[3] = biological target: T1, pvLDH (Plasmodium vivax lactate …); assay: EMSA; conditions: tags: (His)6-tag, pET28a, E. coli BL21(DE3); chain copies: 4 inferred

| Binder | Kd [1] [nM] | Kd [2] [nM] | binding result [3] |
| --- | --- | --- | --- |
| GAACTCATTGGCTGGAGGCGGCAGTACCGCTTGAGTTC (ssDNA) [Aptamer #2] | 49.6 | 31.7 | – |
| GTTCGATTGGATTGTGCCGGAAGTGCTGGCTCGAAC (ssDNA) [Aptamer #1] | 38.7 | 16.8 | – |
| GTTCGACCAAATTGTGCCGGAAGTGCTGGCTCGAAC (ssDNA) [Aptamer #1 loop 1 mutant] | – | – | no binding |
| GTTCGATTGGATTGTGCCGGAGACGCTGGCTCGAAC (ssDNA) [Aptamer #1 loop 2 mutant] | – | – | no binding |
